These are literature values, as cited in publication PMC10653114.

In series [1] the target is Asp39 (UniProt position 413, PVDGWDLTFSF). The conditions noted are these: 298 K; Conc. 0.10 (unit not given; K+/Cl–).
The target of series [2] is Lys16 (UniProt position 20, EKYAAKEGDPN). Particulars: 300 K; Conc. 0.00 (unit not given; Na+/Cl–); apo (Ca2+-free), inferred from the apo structure 1CLB used.
For series [3], the target named is Lys41 (UniProt position 45, FPSLLKGPSTL). Particulars: 300 K; Conc. 0.00 (unit not given; Na+/Cl–); apo (Ca2+-free), inferred from the apo structure 1CLB used.
Series [4] addresses Lys55 (UniProt position 59, FEELDKNGDGE). Particulars: 300 K; Conc. 0.00 (unit not given; Na+/Cl–); apo (Ca2+-free), inferred from the apo structure 1CLB used.
Series [5] has as its target Lys25 (UniProt position 29, PNQLSKEELKL). Particulars: 300 K; Conc. 0.00 (unit not given; Na+/Cl–); apo (Ca2+-free), inferred from the apo structure 1CLB used.
In series [6] the target is Lys7 (UniProt position 11, SPEELKGIFEK). Particulars: 300 K; Conc. 0.00 (unit not given; Na+/Cl–); apo (Ca2+-free), inferred from the apo structure 1CLB used.
In series [7] the target is Lys29 (UniProt position 33, SKEELKLLLQT). Particulars: 300 K; Conc. 0.00 (unit not given; Na+/Cl–); apo (Ca2+-free), inferred from the apo structure 1CLB used.
For series [8], the target named is Lys72 (UniProt position 76, QVLVKKISQ--). The conditions noted are these: 300 K; Conc. 0.00 (unit not given; Na+/Cl–); apo (Ca2+-free), inferred from the apo structure 1CLB used.
Series [9] deals with Lys71 (UniProt position 75, FQVLVKKISQ-). Particulars: 300 K; Conc. 0.00 (unit not given; Na+/Cl–); apo (Ca2+-free), inferred from the apo structure 1CLB used.
Series [10] has as its target Lys12 (UniProt position 16, KGIFEKYAAKE). Particulars: 300 K; Conc. 0.00 (unit not given; Na+/Cl–); apo (Ca2+-free), inferred from the apo structure 1CLB used.
For series [11], the target named is Glu41 (UniProt position 41, VFQNRESVLPT). The conditions noted are these: 295 K; Conc. 0.10 (unit not given; Na+/Cl–).
Series [12] addresses Asp17 (UniProt position 17, PPEATDTLNLI). Particulars: 295 K; Conc. 0.10 (unit not given; Na+/Cl–).
Series [13] concerns the target Glu78 (UniProt position 78, GEATQEDYYTG). Particulars: 295 K; Conc. 0.10 (unit not given; Na+/Cl–).
The target of series [14] is Asp84 (UniProt position 84, DYYTGDHYATF). The conditions noted are these: 295 K; Conc. 0.10 (unit not given; Na+/Cl–).
Series [15] concerns the target Glu54 (UniProt position 54, YGYYHEYTVIT). Particulars: 295 K; Conc. 0.10 (unit not given; Na+/Cl–).
Series [16] deals with Glu14 (UniProt position 14, SALPPEATDTL). Particulars: 295 K; Conc. 0.10 (unit not given; Na+/Cl–).
Series [17] deals with Asp93 (UniProt position 93, TFSLIDQTC--). The conditions noted are these: 295 K; Conc. 0.10 (unit not given; Na+/Cl–).
Series [18] concerns the target Asp79 (UniProt position 79, EATQEDYYTGD). The conditions noted are these: 295 K; Conc. 0.10 (unit not given; Na+/Cl–).
Series [19] has as its target Asp25 (UniProt position 25, NLIASDGPFPY). The conditions noted are these: 295 K; Conc. 0.10 (unit not given; Na+/Cl–).
Series [20] has as its target Asp33 (UniProt position 33, FPYSQDGVVFQ). The conditions noted are these: 295 K; Conc. 0.10 (unit not given; Na+/Cl–).
Series [21] addresses Glu74 (UniProt position 74, RIITGEATQED). The conditions noted are these: 295 K; Conc. 0.10 (unit not given; Na+/Cl–).
The target of series [22] is Asp30 (UniProt position 50, NQCSTDSGYSM). The experiment in a line: not stated (the title of ref 83 mentions NMR pH-dependent chemical shifts). The conditions noted are these: 313 K; Conc. 0.0 (unit not given; Na+/Cl–).
Series [23] has as its target Lys94 (UniProt position 114, NGFSNKCSSL-). The description is as above. Particulars: 313 K; Conc. 0.0 (unit not given; Na+/Cl–).
The target of series [24] is Asp72 (UniProt position 92, NPPNCDLTVPT). Described as above. Particulars: 313 K; Conc. 0.0 (unit not given; Na+/Cl–).
In series [25] the target is Asp21 (UniProt position 41, VSILSDASFNQ). The description is as above. Particulars: 313 K; Conc. 0.0 (unit not given; Na+/Cl–).
In series [26] the target is Lys61 (UniProt position 81, CNTMIKKIVTL). Described as above. The conditions noted are these: 313 K; Conc. 0.0 (unit not given; Na+/Cl–).
Series [27] addresses Glu73 (UniProt position 155, NAKKIEVEFDK). The conditions noted are these: 298 K; Conc. 0.10 (unit not given; K+/Cl–).
Series [28] deals with Asp143 (UniProt position 225, NIWSEDNADSG). Particulars: 298 K; Conc. 0.10 (unit not given; K+/Cl–).
Series [29] addresses Glu101 (UniProt position 183, GKMVNEALVRQ). Particulars: 298 K; Conc. 0.10 (unit not given; K+/Cl–).
Series [30] concerns the target Asp95 (UniProt position 177, AYIYADGKMVN). The conditions noted are these: 298 K; Conc. 0.10 (unit not given; K+/Cl–).
Series [31] concerns the target Asp146 (UniProt position 228, SEDNADSGQ--). The conditions noted are these: 298 K; Conc. 0.10 (unit not given; K+/Cl–).
Series [32] deals with Asp40 (UniProt position 122, RLLLVDTPETK). The conditions noted are these: 298 K; Conc. 0.10 (unit not given; K+/Cl–).
For series [33], the target named is Glu52 (UniProt position 134, PKKFNEKYGPE). The conditions noted are these: 298 K; Conc. 0.10 (unit not given; K+/Cl–).
The target of series [34] is Glu142 (UniProt position 224, LNIWSEDNADS). The conditions noted are these: 298 K; Conc. 0.10 (unit not given; K+/Cl–).
In series [35] the target is Glu75 (UniProt position 157, KKIEVEFDKGQ). Particulars: 298 K; Conc. 0.10 (unit not given; K+/Cl–).
Series [36] concerns the target Glu67 (UniProt position 149, TKKMVENAKKI). Particulars: 298 K; Conc. 0.10 (unit not given; K+/Cl–).
The target in series [37] is Glu122 (UniProt position 204, GNNTHEQLLRK). The conditions noted are these: 298 K; Conc. 0.10 (unit not given; K+/Cl–).
The target of series [38] is Glu43 (UniProt position 125, LVDTPETKHPK). The conditions noted are these: 298 K; Conc. 0.10 (unit not given; K+/Cl–).
Series [39] has as its target Asp19 (UniProt position 101, LIKAIDGDTVK). The conditions noted are these: 298 K; Conc. 0.10 (unit not given; K+/Cl–).
Series [40] addresses Asp83 (UniProt position 165, KGQRTDKYGRG). Particulars: 298 K; Conc. 0.10 (unit not given; K+/Cl–).
Series [41] concerns the target Asp21 (UniProt position 103, KAIDGDTVKLM). The conditions noted are these: 298 K; Conc. 0.10 (unit not given; K+/Cl–).
The target in series [42] is Glu57 (UniProt position 139, EKYGPEASAFT). The conditions noted are these: 298 K; Conc. 0.10 (unit not given; K+/Cl–).
In series [43] the target is Glu129 (UniProt position 211, LLRKAEAQAKK). The conditions noted are these: 298 K; Conc. 0.10 (unit not given; K+/Cl–).
The target of series [44] is Glu135 (UniProt position 217, AQAKKEKLNIW). Particulars: 298 K; Conc. 0.10 (unit not given; K+/Cl–).
Series [45] addresses Asp77 (UniProt position 159, IEVEFDKGQRT). The conditions noted are these: 298 K; Conc. 0.10 (unit not given; K+/Cl–).
The target in series [46] is Glu10 (UniProt position 92, KKLHKEPATLI). The conditions noted are these: 298 K; Conc. 0.10 (unit not given; K+/Cl–).

As to “Highly charge-depleted protein (PDB 6QFS), T39D/T66H variant (Cellulomonas fimi (parent domain; not stated in the article); T39D;T66H (on the 6QFS charge-depleted background; background substitutions not stated))”, the pKa in [1] is recorded as 4.07 ± 0.02.

Calbindin D9k (apo) (Bos taurus): the pKa in series [2] is 11.90; in series [3], 11.02; in series [4], 12.95; in series [5], 13.21; in series [6], 12.53; in [7], 11.81. The pKa was 11.95 in series [8], 11.22 in series [9] and 12.02 in series [10].

“Ribonuclease Sa (Streptomyces aureofaciens)”: the pKa is 4.14 ± 0.07 in series [11]; 3.72 ± 0.07 in [12]; 3.13 ± 0.07 in series [13]; 3.01 ± 0.07 in series [14]; 3.42 ± 0.07 in series [15]; 5.02 ± 0.07 in series [16]. The pKa is listed as 3.09 ± 0.07 in series [17]; 7.37 ± 0.07 in [18]; 4.87 ± 0.07 in [19]; 2.39 ± 0.07 in series [20]; 3.47 ± 0.07 in [21].

With “Beta-cryptogein (beta-elicitin) (Phytophthora cryptogea)”, the pKa in [22] is 2.51 ± 0.09; in [23], 9.4; in series [24], 2.61 ± 0.15; in [25], 2.49 ± 0.05; in [26] it was 10.1.

For “Staphylococcal nuclease, Delta+PHS variant (Staphylococcus aureus; G50F;V51N;P117G;H124L;S128A;del44-49)”, the pKa is listed as 3.31 ± 0.01 in series [27]; 3.8 ± 0.1 in series [28]; 3.81 ± 0.1 in series [29]; 2.16 ± 0.07 in series [30]; 3.86 ± 0.05 in series [31]; 3.87 ± 0.09 in series [32]. Also, the pKa is on record as 3.93 ± 0.08 in series [33]; 4.49 ± 0.04 in series [34]; 3.26 ± 0.05 in [35]; 3.76 ± 0.07 in series [36]; 3.89 ± 0.09 in series [37]; 4.32 ± 0.04 in [38]. Moreover, the pKa in series [39] is listed as 2.21 ± 0.07; in [40], under 2.2; in series [41] it was 6.53 ± 0.02; in series [42], 3.49 ± 0.09; in series [43], 3.75 ± 0.09; in series [44], 3.76 ± 0.08. The pKa in series [45] is reported as under 2.2; in [46], 2.82 ± 0.09.

By pKa is commonly meant the pH at which an ionisable group is half protonated.
